In patent publication CN117946265A (HISUN BIO PHARMACEUTICAL CO LTD; ZHEJIANG BORUI BIOLOGICAL …, dated 2024):
Several values for one entry are separate records, joined by “and”; a condition that tells them apart may be missing. Equal values may be shown once.

T1: 人CX3CL1胞外区蛋白 CX3CL1(Q25-Q341)-6xHis (human, UniProt P78423 25-341)
T1 sequence: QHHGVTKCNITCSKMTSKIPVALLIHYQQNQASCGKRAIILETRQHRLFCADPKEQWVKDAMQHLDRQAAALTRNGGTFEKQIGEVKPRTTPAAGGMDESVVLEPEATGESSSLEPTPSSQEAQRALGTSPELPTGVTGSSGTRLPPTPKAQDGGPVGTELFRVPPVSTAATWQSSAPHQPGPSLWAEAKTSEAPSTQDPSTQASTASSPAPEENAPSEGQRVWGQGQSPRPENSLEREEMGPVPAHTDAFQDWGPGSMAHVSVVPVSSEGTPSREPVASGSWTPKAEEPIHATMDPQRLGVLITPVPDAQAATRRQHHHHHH


Key:
[1] = target: T1, 人CX3CL1胞外区蛋白 CX3CL1(Q25-Q341)-6xHis; assay: cell-based or functional assay
[2] = target: T1, 人CX3CL1胞外区蛋白 CX3CL1(Q25-Q341)-6xHis; assay: cell-based or functional assay; remark: listed apart in the source
[3] = target: T1, 人CX3CL1胞外区蛋白 CX3CL1(Q25-Q341)-6xHis; assay: FACS competition: antibody blocks huCX3CL1-His binding to CHOK1-hCX3CR1 cells

Binder | 抑制cAMP活性 IC50 [1] | 抑制cAMP活性 MAX [1] | 抑制细胞迁移活性 IC50 [2] | IC50 [3]
HumAb032-4 (antibody, human IgG2, kappa, V domains shown, Full-length humanized IgG2/kappa antibody) VH: EVQLVQSGAEVKKPGATVKISCKASGYTFTDYYMNWVQQAPGKSLEWMGDINPNQGGTSYNQKFKGRVTLTVDKSTSTAYMELSSLRSEDTAVYYCASSGNSYVDYWGQGTTVTVSS VL: DIQMTQSPSSLSASVGDRVTITCKASQDVSTAVAWYQQKPGKAPKLLLYWASTRHTGVPSRFSGSGSGTDYTLTISSLQPEDFATYYCQQHYSSPYTFGGGTKVEIKR | – | – | – | 1.22 nM
C032 (antibody, human IgG2, kappa, V domains shown, Human-mouse chimeric antibody of mAb032 with human IgG2 constant region, expressed in CHOK1; also called 嵌合抗体C032) VH: EVQLQQSGPELVKPGASVKISCKASGYTFTDYYMNWVKQSHGKSLEWIGDINPNNGGTSYNQKFKGKATLTVDKSSSTAYMELRSLTSEDSAVYYCASSGNSYVDYWGQGTTLTVSS VL: DIVMTQSHKFMSTSVGDRVSITCKASQDVSTAVAWYQQKPGQSPKLLIYWASTRHTGVPDRFTGSGSGTDYTLTISSVQAEDLALYYCQQHYSSPYTFGGGTKLEIKR | 3.4 nM | 95.8 | 2.49 nM | 0.731 nM
mAb022 (antibody, V domains shown, Murine monoclonal antibody purified from hybridoma supernatant; also called 15F7B2) VH: EVQLQQSGPELVKPGASVKISCKASGYTFTDYYMNWVKQSHGKSLEWIGDINPNNGGTNYNQKFKGKATLTVDKSSSTAYMELRSLTSEDSAVFYCASSGNSYVDYWGQGTTLTVSS VL: DIVMTQSHKFMSTSVGDRVNITCKASQDVSTAVAWYQQKPGQSPKLLIYWASTRHTGVPDRFTGSGSGTDYTLTISSVQAEDLALYYCQQHYSSPYTFGGGTKLEIK | 0.8 nM | 105 | 7.19 nM | 7.6 nM
C022 (antibody, human IgG2, kappa, V domains shown, Human-mouse chimeric antibody of mAb022 with human IgG2 constant region, expressed in CHOK1; also called 嵌合抗体C022) VH: EVQLQQSGPELVKPGASVKISCKASGYTFTDYYMNWVKQSHGKSLEWIGDINPNNGGTNYNQKFKGKATLTVDKSSSTAYMELRSLTSEDSAVFYCASSGNSYVDYWGQGTTLTVSS VL: DIVMTQSHKFMSTSVGDRVNITCKASQDVSTAVAWYQQKPGQSPKLLIYWASTRHTGVPDRFTGSGSGTDYTLTISSVQAEDLALYYCQQHYSSPYTFGGGTKLEIKR | 2.41 nM and 3.28 nM | – | – | 0.885 nM and 1.7 nM

Other lines, results leading:

抑制cAMP活性 IC50 [1] | 抑制cAMP活性 MAX [1] | 抑制细胞迁移活性 IC50 [2] | IC50 [3] | Binder
0.7 nM | 100 | 7.55 nM | 6.1 nM | mAb017 (antibody, V domains shown, Murine monoclonal antibody purified from hybridoma supernatant; also called 36C7-1G2) VH: QIQLVQSGPELKKPGETVKISCKASVYTFTEYAMHWVKQAPGKGFKWMGWINTNSGEPTYADDFKGRFAFSLETSASTAYLQINNLKNEDTATYFCGRGRVVGSFDYWGQGTTLTVSS VL: not shown
5.69 nM and 4.07 nM | – | 19 nM | 1.96 nM | Tab#1 (antibody, human IgG2, kappa, V domains shown, also called Quetmolimab; CX3CL1阳性对照抗体) VH: QVQLVQSGAEVKKPGASVKVSCKASGYTFTNYYIHWVKQAPGQGLEWIGWIYPGDGSPKFNERFKGRTTLTADKSTNTAYMLLSSLRSEDTAVYFCATGPTDGDYFDYWGQGTTVTVSS VL: DIQMTQSPSSLSASVGDRVTITCRASGNIHNFLAWYQQKPGKAPKLLIYNEKTLADGVPSRFSGSGSGTDYTLTISSLQPEDFATYFCQQFWSTPYTFGGGTKVEIKR
2.69 nM | 100 | 0.299 nM | 1.27 nM | HumAb022-4 (antibody, human IgG2, kappa, V domains shown, Full-length humanized IgG2/kappa antibody) VH: EVQLVQSGAEVKKPGATVKISCKASGYTFTDYYMNWVQQAPGKSLEWMGDINPNQGGTNYNQKFKGRVTLTVDKSTSTAYMELSSLRSEDTAVYYCASSGNSYVDYWGQGTTVTVSS VL: DIQMTQSPSSLSASVGDRVTITCKASQDVSTAVAWYQQKPGKAPKLLLYWASTRHTGVPSRFSGSGSGTDYTLTISSLQPEDFATYYCQQHYSSPYTFGGGTKVEIKR
3.96 nM | 97 | 2.27 nM | 0.811 nM and 1.49 nM | C032QG (antibody, human IgG2, kappa, V domains shown, Chimeric IgG2 mutant of C032 removing the NG hot spot of HCDR2 (NG to QG)) VH: EVQLQQSGPELVKPGASVKISCKASGYTFTDYYMNWVKQSHGKSLEWIGDINPNQGGTSYNQKFKGKATLTVDKSSSTAYMELRSLTSEDSAVYYCASSGNSYVDYWGQGTTLTVSS VL: DIVMTQSHKFMSTSVGDRVSITCKASQDVSTAVAWYQQKPGQSPKLLIYWASTRHTGVPDRFTGSGSGTDYTLTISSVQAEDLALYYCQQHYSSPYTFGGGTKLEIKR
1.07 nM | 115 | 8.72 nM | 11.5 nM | mAb032 (antibody, V domains shown, Murine monoclonal antibody purified from hybridoma supernatant; also called 18H6F1) VH: EVQLQQSGPELVKPGASVKISCKASGYTFTDYYMNWVKQSHGKSLEWIGDINPNNGGTSYNQKFKGKATLTVDKSSSTAYMELRSLTSEDSAVYYCASSGNSYVDYWGQGTTLTVSS VL: DIVMTQSHKFMSTSVGDRVSITCKASQDVSTAVAWYQQKPGQSPKLLIYWASTRHTGVPDRFTGSGSGTDYTLTISSVQAEDLALYYCQQHYSSPYTFGGGTKLEIK
3.63 nM | 92.5 | 4 nM | 0.865 nM | C032NA (antibody, human IgG2, kappa, V domains shown, Chimeric IgG2 mutant of C032 removing the NG hot spot of HCDR2 (NG to NA)) VH: EVQLQQSGPELVKPGASVKISCKASGYTFTDYYMNWVKQSHGKSLEWIGDINPNNAGTSYNQKFKGKATLTVDKSSSTAYMELRSLTSEDSAVYYCASSGNSYVDYWGQGTTLTVSS VL: DIVMTQSHKFMSTSVGDRVSITCKASQDVSTAVAWYQQKPGQSPKLLIYWASTRHTGVPDRFTGSGSGTDYTLTISSVQAEDLALYYCQQHYSSPYTFGGGTKLEIKR
